Measurements from the supplement of paper PMC12042874.
± gives the uncertainty stated by the source.

experiment: amyloid nucleation score (Sup35N fusion, yeast selection) (log enrichment); library NNK2; higher = more nucleation; inactive = no reads after selection
Method in brief: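 Output and input plasmid inserts were sequenced by Illumina after psi-negative yeast carrying Sup35N fused to peptides of 20 random codons had been induced 24 hours with 100 μM copper sulfate and grown 7 days at 30°C on medium lacking adenine and uracil. The nucleation score is the DiMSum log enrichment of output over input reads, centred on the mode score of non-aggregating sequences. Sequences with under 100 input reads were excluded.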

| Substance | amyloid nucleation score |
| --- | --- |
| DVSGISDARMGKPSQWYGWY | 0.182 ± 0.38 |
| DVVKSVPQTPL | 0.851 ± 0.28 |
| DWCYYGG | inactive |
| DWPRLLNFWRY | -0.284 ± 1.1 |
| DWTTAFSTF | -0.012 ± 0.41 |
| DWVFMRKCSPCWWYYIHLMS | -0.468 ± 0.64 |
| DWWERGRVGSGCQSLGVTLH | 0.923 ± 0.81 |
| DWWSDDSRLGNLLRFSKRSF | -0.636 ± 0.76 |
| DYCMFFGVTRISSLH | 3.95 ± 0.073 |
| DYFFPWENSGCIRRSLTVG | -1.35 ± 0.41 |
| DYGLVCY | 0.277 ± 0.22 |
| DYLSIFDYHDMMGQNFL | -0.151 ± 0.49 |
| DYMTGV | inactive |
| DYPSKKGVVPPRLGISDKNV | 2.86 ± 0.049 |
| DYRMVYSCCMLGREGWRNTW | 5.606 ± 0.035 |
| ECFTMSRK | -1.28 ± 0.37 |
| ECGDRIL | 0.536 ± 0.42 |
| ECHANASFFLCRGAERSACG | 0.783 ± 0.58 |
| ECLTG | -1.04 ± 0.44 |
| ECMAWGIFCGGSSGIFCLNQ | inactive |
| ECSFVMKY | 3.41 ± 0.074 |
| EDHSGF | -1.15 ± 0.28 |

| Substance | amyloid nucleation score |
| --- | --- |
| EDIGSVMGVSRAFCWQRAIC | -0.666 ± 0.79 |
| EDLWWVQLSNLKDSVDEYCR | 0.007 ± 0.21 |
| EDSPPFWGVVWPFTRNNDRK | 1.11 ± 0.52 |
| EDVDICRHFYRGVVNNGYQR | 0.328 ± 0.57 |
| EELKYYSISVMLRGRHALLI | -0.894 ± 0.56 |
| EEREFSAASPEAMELR | inactive |
| EESGGYC | -0.893 ± 0.25 |
| EESYLSHGL | 1.22 ± 0.61 |
| EETVLIFLCYMAGRDLYKVN | 3.21 ± 0.096 |
| EEYFDWSMKCKLIYINRVPL | -0.358 ± 1 |
| EFDDYSFICRILSALFES | -0.153 ± 1.1 |
| EFIDLVD | inactive |
| EFLRNGLFKEVAS | 0.202 ± 0.64 |
| EFRWGFRGVSYLKCTC | 1.2 ± 0.15 |
| EFVLKSLTNLTEIKYAVSLE | 2.09 ± 0.099 |
| EGDMLILEF | -0.474 ± 1 |
| EGFLRIVKVVTTIWWTGLFC | -1.23 ± 1 |
| EGIILFRKDRELTGGRLTNV | -0.145 ± 1.1 |
| EGYAGVVQMALFYSWANIRL | 0.194 ± 0.62 |
| EHLCPYF | 0.667 ± 0.46 |
| EHVFMSAHFLLNSQRKKN | -1.9 ± 0.75 |
| EICLHLQAYAIKQCGLLGTP | 0.407 ± 0.26 |

| Substance | amyloid nucleation score |
| --- | --- |
| EIWMSLSLNAEISYVYYSQS | -0.658 ± 0.28 |
| EKAGGPWLDHNRRQCQCEVA | 0.634 ± 0.45 |
| EKGNVGSQANTLVRCSGLTW | 1.17 ± 0.21 |
| EKICRWHTDRGAFN | inactive |
| EKTFRFADYLMCPASSRSSV | -0.082 ± 0.4 |
| EKVSFASFMS | -1.31 ± 0.78 |
| ELFQIAVTRTKFLLVQSSYS | 1.27 ± 0.18 |
| ELLGG | -0.343 ± 1.1 |
| ELMVTVVDHCTFVVTRLCGE | 7.184 ± 0.064 |
| ELNLNS | 0.695 ± 0.36 |
| ELNMRAYRKMSKGSYSKNSG | -0.462 ± 0.76 |
| ELRSLAGIVSWLSLRYPPTE | 2.42 ± 0.23 |
| ELSRAGYEWCLGSHTSLVSS | 0.836 ± 0.32 |
| ELTTTTTYVRKVFCLYFS | 8.422 ± 0.047 |
| EMLFWVVGTMDVDWMPG | 0.508 ± 0.57 |
| EMLYTSFILSLWNNLDFILS | -0.452 ± 0.63 |
| EMVIGMFKCTLISSIVLKTC | 0.484 ± 0.23 |
| ENATFLATCI | -0.217 ± 0.79 |
| ENCHFLGWANNGVLKCSFT | -0.153 ± 0.63 |
| ENLSQQMFWFKYAKVWGNVH | -0.724 ± 0.39 |
| EPNIGSVP | -0.171 ± 0.55 |
| EQYPNKPVRCEVRATATWGP | 0.245 ± 0.27 |

| Substance | amyloid nucleation score |
| --- | --- |
| ERGSYLRESRYIVFFNLLIL | inactive |
| ERNCISYHKGIFDNNEC | inactive |
| ERNSWISLIQTF | -0.693 ± 0.39 |
| ERSIARSFRLAADFCSYSRR | inactive |
| ESDLVLGRVR | 0.69 ± 0.49 |
| ESFARFIAM | -0.033 ± 0.55 |
| ESLMKSYVLSAYMCGPIGGR | 1.03 ± 0.37 |
| ESSFLLNHHT | -0.142 ± 0.79 |
| ESTWSFNSLYIDLIKVWSDV | -0.889 ± 0.76 |
| ETHVRMWAHFWQTTLRCHKS | 1.72 ± 0.16 |
| ETVFRLFFSYRGVANHVVPG | -0.408 ± 0.63 |
| ETYLVFV | 0.072 ± 0.79 |
| ETYWWRQRLNSRLAFNWH | 5.16 ± 0.098 |
| EVDLRKSGLSGRVKFYLMLW | 0.839 ± 0.57 |
| EVLRKQIVRTRAVQVHFCLT | 1.15 ± 0.15 |
| EVLSRDRSSAPFAVLLAGSR | 0.129 ± 0.76 |
| EVSNRCRRLSTRRVHSVLVG | 1.13 ± 0.25 |
| EVSSGTCFGTS | 0.084 ± 0.42 |
| EVTWDVLAIVLTLMKKA | 4.27 ± 0.083 |
